Reference: article PMC10141581
pKd: −log10 of the molar value. Each block holds one substance with its values, some of them ahead of it.

Tests used:
[1] = target: 14-3-3ζ (UniProt P63104); test: SEC-MALS of homodimer, 50 µM; conditions: reference: 14-3-3ζ wild type; sites S58
[2] = target: FLAG-CRBN (human) (UniProt Q96SW2); test: co-IP; 20 μM purified Myc-14-3-3ζ added to lysate of HEK293T cells expressing FLAG-CRBN (Calyculin A, no phosphatase), 1 h; ANTI-FLAG M2 affinity gel; 50 mM Tris pH 7.5, 150 mM NaCl; Western blot with α-FLAG and α-myc
Chain of FLAG-CRBN (human) (Q96SW2 whole entry): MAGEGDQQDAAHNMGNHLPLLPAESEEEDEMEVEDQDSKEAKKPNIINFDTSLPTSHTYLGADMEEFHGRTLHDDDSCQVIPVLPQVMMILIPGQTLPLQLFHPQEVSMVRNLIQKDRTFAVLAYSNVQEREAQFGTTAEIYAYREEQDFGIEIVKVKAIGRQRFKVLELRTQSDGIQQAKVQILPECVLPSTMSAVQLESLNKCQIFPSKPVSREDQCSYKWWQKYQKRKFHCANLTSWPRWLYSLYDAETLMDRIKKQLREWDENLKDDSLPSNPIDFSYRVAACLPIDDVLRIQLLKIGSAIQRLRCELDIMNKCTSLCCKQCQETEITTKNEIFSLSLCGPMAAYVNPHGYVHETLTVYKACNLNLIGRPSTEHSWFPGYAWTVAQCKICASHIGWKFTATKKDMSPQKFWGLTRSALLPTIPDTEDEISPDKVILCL

[3] = target: 14-3-3ζ WT (human) (UniProt P63104); test: SEC-MALS; 14-3-3ζ variants alone, injected at 50 μM initial concentration; Superdex 200 10/300 GL; 50 mM Tris pH 7.4, 150 mM NaCl, 0.5 mM TCEP; room temperature; dimer to monomers
[4] = target: HSPB6-pSer16 (UniProt O14558); test: SEC-MALS; co-purified 14-3-3ζ/HSPB6 complexes, or purified HSPB6 mixed with 14-3-3ζ; Superdex 200 10/300 GL; 50 mM Tris pH 7.4, 150 mM NaCl, 0.5 mM TCEP; room temperature; samples at 50 μM
Chain of HSPB6-pSer16 (O14558 whole entry): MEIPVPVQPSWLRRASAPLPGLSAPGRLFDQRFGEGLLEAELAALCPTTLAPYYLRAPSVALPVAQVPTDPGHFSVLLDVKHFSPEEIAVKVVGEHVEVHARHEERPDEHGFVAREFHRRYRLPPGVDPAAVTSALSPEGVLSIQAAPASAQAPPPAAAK

[5] = target: HSPB6-nhpSer16 (UniProt O14558); test: as above
[6] = target: HSPB6-pSer16 (UniProt O14558); test: AUC; sedimentation equilibrium; 14.3, 7.2 and 3.6 μM; 8,000, 10,000 and 15,000 rpm; 5 °C; 50 mM Tris pH 7.4, 150 mM NaCl, 1 mM TCEP; global fit to A + B ↔ AB with fixed masses of a HSPB6 dimer and a 14-3-3ζ dimer
[7] = target: HSPB6-nhpSer16 (UniProt O14558); test: as above
[8] = target: HSPB6 (Homo sapiens) (UniProt O14558); conditions: cited from earlier work
Chain of HSPB6 (Homo sapiens) (O14558 whole entry): as above

[9] = target: 14-3-3ζ (UniProt P63104); test: His-tag co-purification after E. coli co-expression; conditions: reference: HSPB6 wild type (Ser16); sites S16

Chain of 14-3-3ζ WT (P63104 1-230): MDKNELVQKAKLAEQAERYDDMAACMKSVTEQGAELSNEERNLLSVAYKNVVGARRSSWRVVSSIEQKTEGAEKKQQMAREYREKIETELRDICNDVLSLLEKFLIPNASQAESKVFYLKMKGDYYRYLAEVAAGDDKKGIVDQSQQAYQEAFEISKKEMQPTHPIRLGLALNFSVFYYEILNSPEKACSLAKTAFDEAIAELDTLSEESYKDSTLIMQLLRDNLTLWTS
Chain of myc-14-3-3ζ nhpSer58 (P63104 whole entry): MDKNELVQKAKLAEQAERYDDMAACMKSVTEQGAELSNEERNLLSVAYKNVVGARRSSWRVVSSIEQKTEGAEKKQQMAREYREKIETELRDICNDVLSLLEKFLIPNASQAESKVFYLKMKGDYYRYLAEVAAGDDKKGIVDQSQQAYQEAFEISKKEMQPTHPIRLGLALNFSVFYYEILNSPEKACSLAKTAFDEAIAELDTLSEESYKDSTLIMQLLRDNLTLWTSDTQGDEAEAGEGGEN
Chain of 14-3-3ζ (UniProt P63104) (P63104 whole entry): as above
Chain of 14-3-3ζ (from UniProt P63104) 14-3-3ζ pSer58 (genetic code expansion) (P63104 whole entry, change not shown): as the sequence (P63104 whole entry) above
Chain of 14-3-3ζ (from UniProt P63104) (P63104 whole entry): as above

binding against the reference [1]: lost
Substance: 14-3-3ζ (from UniProt P63104) 14-3-3ζ pSer58 (genetic code expansion)

fold co-immunoprecipitated relative to myc-14-3-3ζ WT or pSer58 [2]: 10 fold
Substance: myc-14-3-3ζ nhpSer58 (from UniProt P63104 1-245) (natural protein)

stoichiometry N [3]: 2
stoichiometry N (14-3-3ζ chains per HSPB6 chain (2:2)) [4]: 1
stoichiometry N (14-3-3ζ chains per HSPB6 chain (2:2)) [5]: 1
pKd [6]: 7.04
pKd [7]: 6.92
Substance: 14-3-3ζ WT (from UniProt P63104 1-230) (natural protein)

Substance: 14-3-3ζ (from UniProt P63104)
pKd [8]: 6.25

binding against the reference [9]: gained
Substance: HSPB6 (small heat shock protein B6) (from UniProt O14558) HSPB6 pSer16 (genetic code expansion)
